US20200339700A1 (Bristol-Myers Squibb, published 2020)
Substitutions are numbered along the chain they refer to.

B1: 12D6-24-L4H4 (antibody, human IgG1, V domains shown)
VH: QVQLVQSGAEVKKPGASVKVSCKASGYTFTGYNMNWVRQAPGQGLEWMGNIDPYYGNTNYNQKFKGRTTLTADTSTSTAYMELSSLRSDDTAVYYCARLGLQLYALDYWGQGTLVTVSS
VL: DIVLTQSPDSLAVSLGERATINCRASQSLVHSNANTYLHWYQQKPGQPPKLLIYKLTNRFFGVPDRFSGSGSGTDFTLTISSLQAEDVAVYYCQQSIHVPWTFGQGTKLEIK
B2: 12D6-24 variant L1H4 (antibody, human IgG1, V domains shown)
VH: B1 VH
VL: DIVMTQTPLSLPVTPGEPASISCRSSQSLVHSNANTYLHWYLQKPGQSPQLLIYKLTNRFFGVPDRFSGSGSGTDFTLKISRVEAEDVGVYYCSQSIHVPWTFGGGTKVEIK
B3: antibody 12D6-24 (antibody, human IgG1, kappa, V domains shown)
VH: B1 VH with T68V, L70M, A72T, S84R, L114T
VL: DIVMTQTPLSLPVTPGEPASISCRSSQSLVHSNANTYLHWYLQKPGQSPQLLIYKLTNRFFGVPDRFSGSGSGTDFTLKISRVEAEDVGVYYCSQSIHVPWTFGGGTKVEIKR
notes: also called mAb 12D6-24; unmodified 12D6-24
B4: 12D6-24 variant L4H2 (antibody, human IgG1, V domains shown)
VH: B1 VH with A16S, R67K, T74K
VL: B1 VL
B5: 12D6-24-L4H1 (antibody, human IgG1, V domains shown)
VH: B1 VH with T68V, L70M, A72T, S84R, L114T
VL: B1 VL
B6: 12D6-24 variant L3H1 (antibody, human IgG1, V domains shown)
VH: B1 VH with T68V, L70M, A72T, S84R, L114T
VL: EIVMTQSPATLSVSPGERATLSCRSSQSLVHSNANTYQQKPGQAPRLLIYKLTNRFFGIPDRFSGSGSGTDFTLTISRVEAEDFAVYYCQQSIHVPWTFGQGTKVEIK
B7: 12D6-24 variant L5H1 (antibody, human IgG1, V domains shown)
VH: B1 VH with T68V, L70M, A72T, S84R, L114T
VL: EIVMTQSPATLSVSPGERATLSCRASQSVSSNLAWYLHWYLQKPGQAPRLLIYKLTNRFFGIPARFSGSGSGTDFTLTISRVEAEDFAVYYCQQSIHVPWTFGQGTKVEIK
B8: 12D6-24 variant L2H1 (antibody, human IgG1, V domains shown)
VH: B1 VH with T68V, L70M, A72T, S84R, L114T
VL: EIVMTQSPATLSVSPGERATLSCRASQSVSSNLAWYQQKPGQAPRLLIYKLTNRFFGIPARFSGSGSGTDFTLTISRVEAEDFAVYYCQQSIHVPWTFGQGTKVEIK
B9: 12D6-24 variant L1H2 (antibody, human IgG1, V domains shown)
VH: B1 VH with A16S, R67K, T74K
VL: B2 VL
B10: 12D6-24 variant L5H2 (antibody, human IgG1, V domains shown)
VH: B1 VH with A16S, R67K, T74K
VL: B7 VL
B11: 12D6-24 variant L2H2 (antibody, human IgG1, V domains shown)
VH: B1 VH with A16S, R67K, T74K
VL: B8 VL

molecular target: T1, human CD40 (human, UniProt P25942 21-193); assay: ELISA
T1 construct: also called huCD40; TNFRSF5
T1 sequence (P25942 21-193 limits assumed): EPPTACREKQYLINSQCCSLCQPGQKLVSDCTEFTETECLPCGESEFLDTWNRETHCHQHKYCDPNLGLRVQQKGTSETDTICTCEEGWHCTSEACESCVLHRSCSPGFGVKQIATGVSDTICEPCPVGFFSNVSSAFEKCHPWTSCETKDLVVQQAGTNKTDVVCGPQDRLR
Experimental: (§1) An ELISA was performed to confirm that the improved antibodies retained affinity for CD40.

Row | Kd | Binder
1 | 240 nM | B1
2 | 230 nM | B2

molecular target: T1, human CD40; assay: ELISA; first screen of the VL/VH pairs (Table 4), head in nM

Row | Kd | Binder
3 | 0.2 nM | B3
4 | 0.2 nM | B4
5 | 0.2 nM | B5

molecular target: T1, human CD40; assay: antigen binding (method not named; ELISA in the rest of Example 2)

Row | Kapp | Binder
6 | 0.24 nM | B1
7 | 0.25 nM | B4
8 | 0.22 nM | B2
9 | 0.25 nM | B5

molecular target: T1, human CD40; assay: ELISA; further experiments (Table 6), 4 day titer
Experimental: as §1

Row | Kd | Binder
10 | 0.25 nM | B4
11 | 0.25 nM | B5

molecular target: T1, human CD40; assay: ELISA; further experiments (Table 6 ELISA), reference value in the text
Experimental: as §1

Row | Kd | Binder
12 | 0.24 nM | B3

molecular target: T1, human CD40; assay: ELISA; remark: another data set of the same source

Row | Kd | Binder
13 | > 100 nM | B6
14 | 1.6 nM | B7
15 | > 100 nM | B8
16 | 0.6 nM | B9
17 | 1.6 nM | B10
18 | > 100 nM | B11
